The results in this text go back to patent US20210145976A1.

Numbering of substitutions follows the chain as printed.

This assay deals with human serum albumin (human) (UniProt P02768). Briefly: screening ELISA. In general terms: ELISA stands for enzyme-linked immunosorbent assay.
human serum albumin (human), sequence (P02768 25-609 limits assumed): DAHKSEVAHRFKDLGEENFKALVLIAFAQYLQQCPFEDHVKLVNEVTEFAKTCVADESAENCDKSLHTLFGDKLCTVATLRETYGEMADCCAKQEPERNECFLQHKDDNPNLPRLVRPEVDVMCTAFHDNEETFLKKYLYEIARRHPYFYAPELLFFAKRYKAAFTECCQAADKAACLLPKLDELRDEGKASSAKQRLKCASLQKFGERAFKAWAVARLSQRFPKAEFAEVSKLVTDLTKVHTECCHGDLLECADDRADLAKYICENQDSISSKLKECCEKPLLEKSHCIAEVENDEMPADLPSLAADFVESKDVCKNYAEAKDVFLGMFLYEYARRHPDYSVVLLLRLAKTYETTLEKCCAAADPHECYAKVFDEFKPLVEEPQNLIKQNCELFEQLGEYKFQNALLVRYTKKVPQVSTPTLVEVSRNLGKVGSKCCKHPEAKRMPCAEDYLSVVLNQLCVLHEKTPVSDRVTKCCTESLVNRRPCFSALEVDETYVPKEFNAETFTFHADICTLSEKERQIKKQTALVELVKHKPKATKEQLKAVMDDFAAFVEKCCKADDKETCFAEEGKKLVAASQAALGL

B1: SEQ ID NO 172 (designed binder)
chain: MLPAPKNLVVSRVTEDSARLSWTAPDAAFDSFPIEYDEWWALGEAITLIVPASERSYDLTGLKPGTEYVVKIHGVKGGQRSYPLIAFFTT
Regarding B1, the HSA turned out to be 3700.

B2: SEQ ID NO 173 (designed binder)
chain: MLPAPKNLVVSRVTEDSARLSWTAPDAAFDSFTIHYRELYVQAIVLTVPGSERSYDLTGLKPGTEYLVMIPGVKGGPTSVPLSAIFTT
Molecule B2 returned an HSA of 20800.

B3: SEQ ID NO 171 (designed binder)
chain: MLPAPKNLVVSRVTEDSARLSWTAPDAAFDSFAIRYLEWWDVGEAIVLTVPGSERSYDLTGLKPGTEYLVEIKGVKGGKFSYPLSAIFTT
Regarding B3, the HSA came out at 1900.

B4: SEQ ID NO 176 (designed binder)
chain: MLPAPKNLVVSRVTEDSARLSWTAPDAAFDSFPIAYAEPRPDGEAIVLTVPGSERSYDLTGLKPGTEYSVGIHGVKGGHDSSPLSAIFTT
The molecule B4 displayed an HSA of 10400.

B5: SEQ ID NO 179 (designed binder)
chain: B4 chain with P33Y, S69P, G71P, H73P, H79P, D80G
Molecule B5 gave an HSA of 74700.

B6: SEQ ID NO 181 (designed binder)
chain: B4 chain with R12H, G71L, H79L, D80L
Molecule B6 returned an HSA of 6000.

B7: SEQ ID NO 178 (designed binder)
chain: B4 chain with P33D, R40I, D42R, G71L, H79R, D80R, S82V
As for B7, the HSA was determined as 2250.

B8: SEQ ID NO 185 (designed binder)
chain: MLPAPKNLVVSRVTEDSARLSWTAPDAAFDSFEIDYDELAIYGEAIVLTVPGSERSYDLTGLKPGTEYGVMIIGVKGGLPSDPLSAIFTT
Consider B8, for which the HSA worked out at 9950.

B9: SEQ ID NO 170 (designed binder)
chain: MLPAPKNLVVSRVTEDSARLSWTAPDAAFDSFFIGYPEYPATGEAIVLTVPGSERSYDLTGLKPGTEYFVDINGVKGGSLSYPLSAIFTT
The molecule B9 displayed an HSA of 16800.

B10: SEQ ID NO 186 (designed binder)
chain: MLPAPKNLVVSRVTEDSARLSWTAPDAAFDSFFIGYLESAEAIVLTVPGSERSYDLTGLKPGTEYLVTIQGVKGGIASDPLSAIFTT
As to B10, the HSA is 1850.

B11: SEQ ID NO 44 (designed binder)
chain: MLPAPKNLVVSRVTEDSARLSWTAPDAAFDSFYIEYYESLPDGEAIVLTVPGSERSYDLTGLKPGTEYAVYIYGVKGGYYSRPLSAIFTT
For the molecule B11, the HSA was found to be 3920.

B12: SEQ ID NO 180 (designed binder)
chain: MLPAPKNLVVSRVTEDSARLSWTAPDAAFDSFEISYYEMRGYGEAIVLTVPGSERSYDLTGLKPGTEYSVLIHGVEGGDYSSPLSAISTT
Molecule B12 came in with an HSA of 33500.

B13: SEQ ID NO 183 (designed binder)
chain: MLPAPKNLVVSRVTEDSARLSWTAPDAAFDSFLIPYAETSPSGEAIVLTVPGSERSYDLTGLKPGTEYSVLIHGVKGGRPSNPLVAAFTT
In turn, B13 had an HSA of 10700.

B14: SEQ ID NO 174 (designed binder)
chain: MLPAPKNLVVSRVTEDSARLSWTAPDAAFDSFFIGYLEPQPPGEAIVLTVPGSERSYDLTGLKPGTEYKVVIQGVKGGTPSEPLSAIFTT
With B14, the HSA amounted to 2200.

B15: SEQ ID NO 177 (designed binder)
chain: B14 chain with K69N, V71T, T79R, P80A, E82G
For B15, the HSA was found to be 2450.

B16: SEQ ID NO 175 (designed binder)
chain: B14 chain with K69S, T79F, E82D
B16: the HSA is 1600.

B17: SEQ ID NO 182 (designed binder)
chain: B14 chain with Q40Y, K69V, V71S, E82Q
Regarding B17, the HSA was found to be 2950.
